# Measurements published in patent US20030165511A1.
# Target: bacteriophage P2 of Lactococcus lactis
# Assay: cell-based or functional assay
binder,measurement,value
VHH#1 (VHH) VHH: QVQLQESGGGLVQAGGSLRLSCTASRRTGSNWCMGWFRQLAGKEPELVVALNFDYDMTYYADSVKGRFTVSRDSGKNTVYLQMNSLKPEDTAIYYCAARSGGFSSNRELYDGWGQGTQVTVSS,neutralisation in microtiter acidification assay (lowest effective concentration),47 ng/mL
same,reduction in the phage titre (plaque titration on L. lactis LM0230),> 99%
